This is an account of results in PMC6336796 (Nature Communications, 2019).

This test concerns the target T1, Flag-CENP-E (UniProt Q02224 1-2701).
T1 construct: CENP-E; Primers are in Supplementary Data 3; also called Flag-CENP-E protein; source: HEK293T, transfected, mitotic cells
Briefly: pull-down; Flag-CENP-E purified from mitotic HEK293T lysate and eluted with 3x Flag peptide, incubated with Myc-GFP or Myc-HOIP bound to anti-c-Myc affinity gel; blot with anti-Flag. The settings on record: both partners purified.

T1 sequence (Q02224 whole entry): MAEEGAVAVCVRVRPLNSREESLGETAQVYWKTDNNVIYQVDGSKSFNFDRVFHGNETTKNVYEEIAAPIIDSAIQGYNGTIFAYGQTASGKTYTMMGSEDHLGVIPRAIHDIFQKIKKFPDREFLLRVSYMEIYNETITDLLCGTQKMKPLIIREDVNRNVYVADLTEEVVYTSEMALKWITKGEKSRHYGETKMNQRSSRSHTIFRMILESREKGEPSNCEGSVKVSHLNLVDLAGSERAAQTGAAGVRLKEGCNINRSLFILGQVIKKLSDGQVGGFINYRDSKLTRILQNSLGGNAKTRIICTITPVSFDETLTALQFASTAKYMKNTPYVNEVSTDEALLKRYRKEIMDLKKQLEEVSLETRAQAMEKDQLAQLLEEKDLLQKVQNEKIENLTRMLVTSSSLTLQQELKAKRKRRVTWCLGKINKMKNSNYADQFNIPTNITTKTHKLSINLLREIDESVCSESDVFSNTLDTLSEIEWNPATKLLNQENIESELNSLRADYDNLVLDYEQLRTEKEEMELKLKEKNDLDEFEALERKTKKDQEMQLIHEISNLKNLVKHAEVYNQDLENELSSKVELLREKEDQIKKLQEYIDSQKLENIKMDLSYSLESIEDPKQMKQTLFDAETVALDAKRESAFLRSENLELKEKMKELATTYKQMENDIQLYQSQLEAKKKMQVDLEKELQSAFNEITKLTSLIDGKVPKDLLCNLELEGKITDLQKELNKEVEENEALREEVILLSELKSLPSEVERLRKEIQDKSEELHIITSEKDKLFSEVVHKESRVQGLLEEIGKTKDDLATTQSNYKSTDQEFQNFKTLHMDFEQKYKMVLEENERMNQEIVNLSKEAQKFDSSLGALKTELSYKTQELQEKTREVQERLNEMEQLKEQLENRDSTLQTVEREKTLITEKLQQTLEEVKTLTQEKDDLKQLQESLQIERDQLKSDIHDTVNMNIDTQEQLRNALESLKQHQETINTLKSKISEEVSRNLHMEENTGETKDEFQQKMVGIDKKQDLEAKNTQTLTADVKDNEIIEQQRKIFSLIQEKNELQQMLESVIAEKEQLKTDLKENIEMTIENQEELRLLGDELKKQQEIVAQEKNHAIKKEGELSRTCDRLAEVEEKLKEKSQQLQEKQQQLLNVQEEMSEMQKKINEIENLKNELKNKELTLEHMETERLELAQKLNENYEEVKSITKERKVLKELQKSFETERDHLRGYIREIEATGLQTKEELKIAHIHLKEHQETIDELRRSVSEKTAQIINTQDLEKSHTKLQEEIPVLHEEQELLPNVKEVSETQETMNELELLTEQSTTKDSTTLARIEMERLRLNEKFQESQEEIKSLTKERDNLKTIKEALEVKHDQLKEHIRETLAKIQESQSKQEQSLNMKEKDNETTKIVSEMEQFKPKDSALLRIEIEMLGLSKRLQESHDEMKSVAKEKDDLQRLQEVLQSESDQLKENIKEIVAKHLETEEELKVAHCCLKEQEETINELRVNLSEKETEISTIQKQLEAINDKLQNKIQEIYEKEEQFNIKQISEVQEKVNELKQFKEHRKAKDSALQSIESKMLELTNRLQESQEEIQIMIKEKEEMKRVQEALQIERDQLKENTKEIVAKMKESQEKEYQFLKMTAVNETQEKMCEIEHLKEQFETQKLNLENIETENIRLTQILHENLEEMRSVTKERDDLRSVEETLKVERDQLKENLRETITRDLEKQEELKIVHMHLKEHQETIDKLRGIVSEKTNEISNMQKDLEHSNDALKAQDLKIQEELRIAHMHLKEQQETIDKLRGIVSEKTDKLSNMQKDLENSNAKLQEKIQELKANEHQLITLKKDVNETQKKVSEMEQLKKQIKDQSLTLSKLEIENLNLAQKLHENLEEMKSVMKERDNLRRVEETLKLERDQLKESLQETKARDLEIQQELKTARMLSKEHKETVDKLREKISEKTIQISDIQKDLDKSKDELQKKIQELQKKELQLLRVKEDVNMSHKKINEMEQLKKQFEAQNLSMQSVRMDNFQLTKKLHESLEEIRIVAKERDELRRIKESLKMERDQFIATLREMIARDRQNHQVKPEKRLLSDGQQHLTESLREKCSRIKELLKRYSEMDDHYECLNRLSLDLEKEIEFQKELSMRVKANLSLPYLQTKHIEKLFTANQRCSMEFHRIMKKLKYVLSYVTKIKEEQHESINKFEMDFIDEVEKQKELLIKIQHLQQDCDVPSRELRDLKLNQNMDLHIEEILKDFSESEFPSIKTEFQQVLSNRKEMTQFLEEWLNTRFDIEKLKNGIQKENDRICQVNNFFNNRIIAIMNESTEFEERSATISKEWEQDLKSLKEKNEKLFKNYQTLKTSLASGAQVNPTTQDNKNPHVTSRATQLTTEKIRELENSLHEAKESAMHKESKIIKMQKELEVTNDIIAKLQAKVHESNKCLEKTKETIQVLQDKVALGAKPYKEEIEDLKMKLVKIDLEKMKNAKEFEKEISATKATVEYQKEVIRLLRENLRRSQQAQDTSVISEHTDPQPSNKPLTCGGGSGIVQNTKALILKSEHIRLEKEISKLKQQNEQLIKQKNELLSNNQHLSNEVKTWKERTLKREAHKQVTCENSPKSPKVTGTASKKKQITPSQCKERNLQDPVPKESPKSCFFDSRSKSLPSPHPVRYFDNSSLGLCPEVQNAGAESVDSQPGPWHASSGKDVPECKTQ

B1: Myc-HOIP (enzyme, UniProt Q96EP0 1-1072, looked up)
chain: MPGEEEERAFLVAREELASALRRDSGQAFSLEQLRPLLASSLPLAARYLQLDAARLVRCNAHGEPRNYLNTLSTALNILEKYGRNLLSPQRPRYWRGVKFNNPVFRSTVDAVQGGRDVLRLYGYTEEQPDGLSFPEGQEEPDEHQVATVTLEVLLLRTELSLLLQNTHPRQQALEQLLEDKVEDDMLQLSEFDPLLREIAPGPLTTPSVPGSTPGPCFLCGSAPGTLHCPSCKQALCPACDHLFHGHPSRAHHLRQTLPGVLQGTHLSPSLPASAQPRPQSTSLLALGDSSLSSPNPASAHLPWHCAACAMLNEPWAVLCVACDRPRGCKGLGLGTEGPQGTGGLEPDLARGRWACQSCTFENEAAAVLCSICERPRLAQPPSLVVDSRDAGICLQPLQQGDALLASAQSQVWYCIHCTFCNSSPGWVCVMCNRTSSPIPAQHAPRPYASSLEKGPPKPGPPRRLSAPLPSSCGDPEKQRQDKMREEGLQLVSMIREGEAAGACPEEIFSALQYSGTEVPLQWLRSELPYVLEMVAELAGQQDPGLGAFSCQEARRAWLDRHGNLDEAVEECVRTRRRKVQELQSLGFGPEEGSLQALFQHGGDVSRALTELQRQRLEPFRQRLWDSGPEPTPSWDGPDKQSLVRRLLAVYALPSWGRAELALSLLQETPRNYELGDVVEAVRHSQDRAFLRRLLAQECAVCGWALPHNRMQALTSCECTICPDCFRQHFTIALKEKHITDMVCPACGRPDLTDDTQLLSYFSTLDIQLRESLEPDAYALFHKKLTEGVLMRDPKFLWCAQCSFGFIYEREQLEATCPQCHQTFCVRCKRQWEEQHRGRSCEDFQNWKRMNDPEYQAQGLAMYLQENGIDCPKCKFSYALARGGCMHFHCTQCRHQFCSGCYNAFYAKNKCPEPNCRVKKSLHGHHPRDCLFYLRDWTALRLQKLLQDNNVMFNTEPPAGARAVPGGGCRVIEQKEVPNGLRDEACGKETPAGYAGLCQAHYKEYLVSLINAHSLDPATLYEVEELETATERYLHVRPQPLAGEDPPAYQARLLQKLTEEVPLGQSIPRRRK
notes: HOIP (RNF31) wild type; Construct supplied by Dr. Kazuhiro Iwai; also called RNF31; purified HOIP; source: HEK293T, transfected, mitotic cells
For the molecule B1, the binding result is on record as “binds”.
